T1: FcγRIIb extracellular domain with C-terminal His tag (human, UniProt P31994 43-217)
T1 construct: extracellular domain; Expressed in FreeStyle293 cells; used as analyte in Biacore; also called FcgRIIb; 2b; not shown: C-terminal His tag
T1 sequence (looked up): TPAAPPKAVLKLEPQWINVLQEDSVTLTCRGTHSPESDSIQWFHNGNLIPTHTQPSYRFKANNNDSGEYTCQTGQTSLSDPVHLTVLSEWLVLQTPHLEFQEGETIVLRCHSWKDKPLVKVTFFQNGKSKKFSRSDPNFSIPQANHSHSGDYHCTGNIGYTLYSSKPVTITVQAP

B1: GpH7-B3 variant Y300_19Q/GpL16-k0 (Ho Ab) (antibody, human IgG1, kappa)
heavy: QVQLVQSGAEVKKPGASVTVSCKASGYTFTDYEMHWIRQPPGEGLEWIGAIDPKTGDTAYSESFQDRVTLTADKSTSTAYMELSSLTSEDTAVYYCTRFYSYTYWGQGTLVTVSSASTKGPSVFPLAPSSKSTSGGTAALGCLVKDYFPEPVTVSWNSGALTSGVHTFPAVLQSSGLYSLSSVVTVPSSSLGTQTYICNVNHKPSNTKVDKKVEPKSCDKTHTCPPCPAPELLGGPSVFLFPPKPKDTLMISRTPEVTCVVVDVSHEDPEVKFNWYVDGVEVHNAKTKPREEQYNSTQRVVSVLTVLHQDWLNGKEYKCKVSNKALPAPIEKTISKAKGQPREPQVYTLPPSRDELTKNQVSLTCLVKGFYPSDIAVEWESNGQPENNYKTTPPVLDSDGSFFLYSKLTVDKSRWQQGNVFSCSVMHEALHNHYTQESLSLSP
light: DIVMTQSPLSLPVTPGEPASISCQASESLVHSNRNTYLHWYLQKPGQSPQLLIYKVSNRFSGVPDRFSGSGSGTDFTLKISRVEAEDVGVYYCSQNTHVPPTFGQGTKVEIERTVAAPSVFIFPPSDEQLKSGTASVVCLLNNFYPREAKVQWKVDNALQSGNSQESVTEQDSKDSTYSLSSTLTLSKADYEKHKVYACEVTHQGLSSPVTKSFNRGEC
notes: Substitution in both H chains; position in EU numbering; also called Y300Q homodimerized antibody
B2: GpH7-A5/GpH7-B3 variant L328_03V/GpL16-k0 (He Ab) (antibody, human IgG1, kappa)
heavy 1: not shown
heavy 2: not shown
light: B1 light
notes: Substitution in one H chain only; position in EU numbering; also called L328V heterodimerized antibody
B3: GpH7-A5/GpH7-B3 variant S239_01G/GpL16-k0 (He Ab) (antibody, human IgG1, kappa)
heavy 1: not shown
heavy 2: not shown
light: B1 light
notes: Substitution in one H chain only; position in EU numbering; also called S239G heterodimerized antibody
B4: GpH7-A5/GpH7-B3 variant K334_19Q/GpL16-k0 (He Ab) (antibody, human IgG1, kappa)
heavy 1: not shown
heavy 2: not shown
light: B1 light
notes: Substitution in one H chain only; position in EU numbering; also called K334Q heterodimerized antibody
B5: GpH7-A5/GpH7-B3 variant S298_08L/GpL16-k0 (He Ab) (antibody, human IgG1, kappa)
heavy 1: not shown
heavy 2: not shown
light: B1 light
notes: Substitution in one H chain only; position in EU numbering; also called S298L heterodimerized antibody
B6: GpH7-A5/GpH7-B3 variant P271_08L/GpL16-k0 (He Ab) (antibody, human IgG1, kappa)
heavy 1: not shown
heavy 2: not shown
light: B1 light
notes: Substitution in one H chain only; position in EU numbering; also called P271L heterodimerized antibody
B7: GpH7-A5/GpH7-B3 variant L328_14T/GpL16-k0 (He Ab) (antibody, human IgG1, kappa)
heavy 1: not shown
heavy 2: not shown
light: B1 light
notes: Substitution in one H chain only; position in EU numbering; also called L328T heterodimerized antibody
B8: GpH7-A5/GpH7-B3 variant L328_19Q/GpL16-k0 (He Ab) (antibody, human IgG1, kappa)
heavy 1: not shown
heavy 2: not shown
light: B1 light
notes: Substitution in one H chain only; position in EU numbering; also called L328Q heterodimerized antibody
B9: GpH7-A5/GpH7-B3 variant S267_14T/GpL16-k0 (He Ab) (antibody, human IgG1, kappa)
heavy 1: not shown
heavy 2: not shown
light: B1 light
notes: Substitution in one H chain only; position in EU numbering; also called S267T heterodimerized antibody
B10: GpH7-A5/GpH7-B3 variant S267_03V/GpL16-k0 (He Ab) (antibody, human IgG1, kappa)
heavy 1: not shown
heavy 2: not shown
light: B1 light
notes: Substitution in one H chain only; position in EU numbering; also called S267V heterodimerized antibody
B11: GpH7-A5/GpH7-B3 variant K334_15Y/GpL16-k0 (He Ab) (antibody, human IgG1, kappa)
heavy 1: not shown
heavy 2: not shown
light: B1 light
notes: Substitution in one H chain only; position in EU numbering; also called K334Y heterodimerized antibody
B12: GpH7-A5/GpH7-B3 variant S337_09D/GpL16-k0 (He Ab) (antibody, human IgG1, kappa)
heavy 1: not shown
heavy 2: not shown
light: B1 light
notes: Substitution in one H chain only; position in EU numbering; also called S337D heterodimerized antibody
B13: GpH7-A5/GpH7-B3 variant S239_18N/GpL16-k0 (He Ab) (antibody, human IgG1, kappa)
heavy 1: not shown
heavy 2: not shown
light: B1 light
notes: Substitution in one H chain only; position in EU numbering; also called S239N heterodimerized antibody
B14: GpH7-A5/GpH7-B3 variant P331_04F/GpL16-k0 (He Ab) (antibody, human IgG1, kappa)
heavy 1: not shown
heavy 2: not shown
light: B1 light
notes: Substitution in one H chain only; position in EU numbering; also called P331F heterodimerized antibody
B15: GpH7-A5/GpH7-B3 variant S337_14T/GpL16-k0 (He Ab) (antibody, human IgG1, kappa)
heavy 1: not shown
heavy 2: not shown
light: B1 light
notes: Substitution in one H chain only; position in EU numbering; also called S337T heterodimerized antibody
B16: GpH7-A5/GpH7-B3 variant S239_07I/GpL16-k0 (He Ab) (antibody, human IgG1, kappa)
heavy 1: not shown
heavy 2: not shown
light: B1 light
notes: Substitution in one H chain only; position in EU numbering; also called S239I heterodimerized antibody
B17: GpH7-A5/GpH7-B3 variant S267_02A/GpL16-k0 (He Ab) (antibody, human IgG1, kappa)
heavy 1: not shown
heavy 2: not shown
light: B1 light
notes: Substitution in one H chain only; position in EU numbering; also called S267A heterodimerized antibody
B18: GpH7-A5/GpH7-B3 variant L328_15Y/GpL16-k0 (He Ab) (antibody, human IgG1, kappa)
heavy 1: not shown
heavy 2: not shown
light: B1 light
notes: Substitution in one H chain only; position in EU numbering; also called L328Y heterodimerized antibody
B19: GpH7-A5/GpH7-B3 variant S239_09D/GpL16-k0 (He Ab) (antibody, human IgG1, kappa)
heavy 1: not shown
heavy 2: not shown
light: B1 light
notes: Substitution in one H chain only; position in EU numbering; also called S239D heterodimerized antibody
B20: GpH7-A5/GpH7-B3 variant S267_09D/GpL16-k0 (He Ab) (antibody, human IgG1, kappa)
heavy 1: not shown
heavy 2: not shown
light: B1 light
notes: Substitution in one H chain only; position in EU numbering; also called S267D heterodimerized antibody
B21: GpH7-A5/GpH7-B3 variant L328_06M/GpL16-k0 (He Ab) (antibody, human IgG1, kappa)
heavy 1: not shown
heavy 2: not shown
light: B1 light
notes: Substitution in one H chain only; position in EU numbering; also called L328M heterodimerized antibody
B22: GpH7-A5/GpH7-B3 variant S267_10E/GpL16-k0 (He Ab) (antibody, human IgG1, kappa)
heavy 1: not shown
heavy 2: not shown
light: B1 light
notes: Substitution in one H chain only; position in EU numbering; also called S267E heterodimerized antibody
B23: GpH7-A5/GpH7-B3 variant T335_09D/GpL16-k0 (He Ab) (antibody, human IgG1, kappa)
heavy 1: not shown
heavy 2: not shown
light: B1 light
notes: Substitution in one H chain only; position in EU numbering; also called T335D heterodimerized antibody

target: T1, FcγRIIb extracellular domain with …; assay: SPR (Biacore), antibody captured on antigen-peptide chip, FcgRIIb as analyte; binding relative to GpH7-B3/GpL16-k0 (HoCon Ab) = 100

Ho/Con_2b	Binder
124 % of control	B1

target: T1, FcγRIIb extracellular domain with …; assay: SPR (Biacore), antibody captured on antigen-peptide chip, FcgRIIb as analyte; binding relative to GpH7-A5/GpH7-B3/GpL16-k0 (HeCon Ab) = 100

He/Con_2b	Binder
126 % of control	B2
144 % of control	B3
109 % of control	B4
108 % of control	B5
103 % of control	B6
141 % of control	B7
105 % of control	B8
104 % of control	B9
192 % of control	B10
109 % of control	B11
114 % of control	B12
119 % of control	B13
110 % of control	B14
105 % of control	B15
107 % of control	B16
243 % of control	B17
193 % of control	B18
206 % of control	B19
310 % of control	B20
142 % of control	B21
379 % of control	B22
108 % of control	B23

— patent US20180155451A1 (published 2018)
